Laboratory results reported in patent publication US20230151111A1 (AKESO BIOPHARMA, published 2023).
Blank lines part the entries; values can stand above or below the binder they belong to.

What was measured:
[1] = target: T1, CD73 on cell membrane surface (MDA-MB-231, U87-MG) (human, UniProt P21589 27-549); assay: flow cytometry, MDA-MB-231 cells
T1 construct: whole, on cells; also called NT5E
T1 sequence (looked up): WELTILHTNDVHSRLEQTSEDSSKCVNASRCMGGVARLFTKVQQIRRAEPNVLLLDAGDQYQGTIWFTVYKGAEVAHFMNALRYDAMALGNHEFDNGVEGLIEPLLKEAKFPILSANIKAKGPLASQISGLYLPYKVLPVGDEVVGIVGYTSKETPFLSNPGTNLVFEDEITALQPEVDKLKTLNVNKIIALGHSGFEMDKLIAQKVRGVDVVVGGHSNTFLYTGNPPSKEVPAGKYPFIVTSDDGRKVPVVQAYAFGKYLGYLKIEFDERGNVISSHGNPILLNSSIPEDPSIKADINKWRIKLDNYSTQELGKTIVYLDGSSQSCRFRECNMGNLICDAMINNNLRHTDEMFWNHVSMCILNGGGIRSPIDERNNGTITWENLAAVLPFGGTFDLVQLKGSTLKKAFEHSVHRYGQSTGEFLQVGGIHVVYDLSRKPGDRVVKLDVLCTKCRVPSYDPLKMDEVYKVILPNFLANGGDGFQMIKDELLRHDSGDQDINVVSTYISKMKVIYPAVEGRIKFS
Protocol: (§1) MDA-MB-231 cells in logarithmic phase were digested with conventional trypsin and transferred to a 1.5 mL centrifuge tube at 3×10⁵ cells/tube. 500 μL of PBSA was added, and the mixture was centrifuged at 5600 rpm for 5 min to remove the supernatant. […] The system was mixed gently and uniformly, and then was incubated on ice for 1 h. Then 500 μL of PBSA was added, and the mixture was centrifuged at 5600 rpm for 5 min to remove the supernatant. […] 500 μL of PBSA was added, and the mixture was centrifuged at 5600 rpm for 5 min to remove the supernatant. At last, 200 μL of PBSA was added to resuspend cell precipitates, and the mixture was transferred to a flow tube for FACSCalibur detection.

[2] = target: T2, PD-1 on 293T-PD1 cell surface (human, UniProt Q15116 25-288); assay: flow cytometry, 293T-PD1 cells; antibody 3.70 nM
T2 construct: whole, on cells
T2 sequence (Q15116 25-288): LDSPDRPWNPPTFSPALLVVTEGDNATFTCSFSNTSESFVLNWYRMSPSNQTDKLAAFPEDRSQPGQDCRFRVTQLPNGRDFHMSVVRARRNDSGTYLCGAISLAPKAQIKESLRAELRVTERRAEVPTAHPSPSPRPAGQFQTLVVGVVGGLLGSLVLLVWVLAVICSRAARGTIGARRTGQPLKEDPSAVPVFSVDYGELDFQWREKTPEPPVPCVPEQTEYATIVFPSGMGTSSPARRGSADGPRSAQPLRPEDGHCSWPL
Protocol: as §1, with “500” for “MDA-MB-231 cells in logarithmic phase were digested with conventional trypsin and transferred to a 1.5 mL centrifuge tube at 3×10⁵ cells/tube. 500”

[3] = target: T2, PD-1 on 293T-PD1 cell surface; assay: flow cytometry, 293T-PD1 cells
Protocol: as §1, with “500” for “MDA-MB-231 cells in logarithmic phase were digested with conventional trypsin and transferred to a 1.5 mL centrifuge tube at 3×10⁵ cells/tube. 500”

[4] = target: T1, CD73 on cell membrane surface …; assay: flow cytometry, MDA-MB-231 cells; antibody 0.14 nM
Protocol: as §1

[5] = target: T1, CD73 on cell membrane surface …; assay: flow cytometry, MDA-MB-231 cells; antibody 3.70 nM
Protocol: as §1

human NT5E-Biotin = target: T3, human NT5E-Biotin (human, UniProt P21589 27-552, limits assumed, biotin label, site not stated); assay: ELISA, NT5E-biotin on streptavidin
T3 construct: Captured on streptavidin-coated plates; also called human NTSE-Biotin
T3 sequence (looked up): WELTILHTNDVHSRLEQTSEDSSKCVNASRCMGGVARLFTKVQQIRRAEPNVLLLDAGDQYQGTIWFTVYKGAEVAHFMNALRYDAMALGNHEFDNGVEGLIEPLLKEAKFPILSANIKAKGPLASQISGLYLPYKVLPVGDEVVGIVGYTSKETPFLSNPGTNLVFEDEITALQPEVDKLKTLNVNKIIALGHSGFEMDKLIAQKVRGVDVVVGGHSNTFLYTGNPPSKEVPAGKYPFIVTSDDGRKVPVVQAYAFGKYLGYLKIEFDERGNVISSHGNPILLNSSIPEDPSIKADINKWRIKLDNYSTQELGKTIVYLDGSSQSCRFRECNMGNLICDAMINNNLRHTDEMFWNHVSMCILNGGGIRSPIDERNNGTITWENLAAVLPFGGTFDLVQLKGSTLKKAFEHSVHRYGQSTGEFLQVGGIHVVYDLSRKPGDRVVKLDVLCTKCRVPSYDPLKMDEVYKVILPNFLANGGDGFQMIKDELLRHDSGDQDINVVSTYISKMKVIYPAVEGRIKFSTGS
Protocol: A microplate was coated with streptavidin at 2 μg/mL and then incubated at 4° C. overnight. After incubation, the microplate coated with streptavidin was washed once with PBST, and blocked with a PBS solution containing 1% BSA as a microplate blocking solution at 37° C. for 2 h. After blocking, the microplate was washed 3 times with PBST. Then, 0.5 μg/mL antigen human NTSE-Biotin was added and incubated at 37° C. for 30 min. Then, the plate was washed 3 times with PBST. The antibodies serially diluted with PBST solution (the dilution gradients for the antibody are shown in Table 3) were added to wells of the microplate. The microplate containing the test antibodies was incubated at 37° C. for 30 min, and then washed 3 times with PBST. […] After incubation, the plate was washed 4 times with PBST, TMB (Neogen, 308177) was added in the dark for chromogenesis for 5 min, and then a stop solution was added to terminate chromogenic reaction. The microplate was put into a microplate reader immediately, and the OD value of each well in the microplate was read at 450 nm. The data were analyzed and processed by SoftMax Pro 6.2.1.

[6] = target: T2, PD-1 on 293T-PD1 cell surface; assay: flow cytometry, 293T-PD1 cells; antibody 1.23 nM
Protocol: as §1, with “500” for “MDA-MB-231 cells in logarithmic phase were digested with conventional trypsin and transferred to a 1.5 mL centrifuge tube at 3×10⁵ cells/tube. 500”

PD-1-mFc = target: T4, PD-1-mFc (human, UniProt Q15116 25-170, limits assumed); assay: ELISA, PD-1-mFc coated
T4 construct: also called human PD-1-mFc
T4 sequence (Q15116 other isoform, or with tags, fused parts or gaps limits assumed): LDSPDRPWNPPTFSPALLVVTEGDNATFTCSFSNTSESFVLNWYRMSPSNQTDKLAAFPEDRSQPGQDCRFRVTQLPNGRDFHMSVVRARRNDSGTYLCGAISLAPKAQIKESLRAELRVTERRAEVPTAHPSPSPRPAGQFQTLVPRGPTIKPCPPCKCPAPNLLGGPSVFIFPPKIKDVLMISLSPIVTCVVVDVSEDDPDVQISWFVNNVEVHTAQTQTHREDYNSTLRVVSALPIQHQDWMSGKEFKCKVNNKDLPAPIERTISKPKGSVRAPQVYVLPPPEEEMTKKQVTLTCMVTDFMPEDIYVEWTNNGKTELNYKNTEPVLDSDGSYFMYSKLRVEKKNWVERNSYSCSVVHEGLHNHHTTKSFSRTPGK
Protocol: A microplate was coated with PD-1-mFc at 0.5 μg/mL and incubated at 4° C. overnight. Then the microplate coated with antigens was washed once with PBST, and then blocked with a PBS solution containing 1% BSA as blocking solution at 37° C. for 2 h. After blocking, the microplate was washed 3 times with PBST. The microplate containing the test antibodies was incubated at 37° C. for 30 min, and then washed 3 times with PBST. […] After incubation, the plate was washed 4 times with PBST, TMB (Neogen, 308177) was added in the dark for chromogenesis for 5 min, and then a stop solution was added to terminate chromogenic reaction. The microplate was put into a microplate reader immediately, and the OD value of each well in the microplate was read at 450 nm. The data were analyzed and processed by SoftMax Pro 6.2.1,

EC50 [1]: 1.38 nM
FACS signal [2]: 531
EC50 [3]: 1 nM
FACS signal [4]: 38
FACS signal [5]: 572
EC50 (human NT5E-Biotin): 0.063 nM
FACS signal [6]: 307
EC50 (PD-1-mFc): 0.078 nM
B1: P1D7V01 (bispecific antibody, human IgG1, kappa)
heavy: not shown
light: DIQMTQSPSSMSASVGDRVTFTCRASQDINTYLSWFQQKPGKSPKTLIYRANRLVSGVPSRFSGSGSGQDYTLTISSLQPEDMATYYCLQYDEFPLTFGAGTKLELKRTVAAPSVFIFPPSDEQLKSGTASVVCLLNNFYPREAKVQWKVDNALQSGNSQESVTEQDSKDSTYSLSSTLTLSKADYEKHKVYACEVTHQGLSSPVTKSFNRGEC
notes: Morrison form IgG-scFv

EC50 [1]: 2.01 nM
FACS signal [2]: 385
EC50 [3]: 1.38 nM
FACS signal [4]: 44
FACS signal [5]: 458
EC50 (human NT5E-Biotin): 0.068 nM
FACS signal [6]: 289
EC50 (PD-1-mFc): 0.075 nM
B2: P1D7V03 (bispecific antibody, human IgG1, kappa)
heavy: not shown
light: B1 light
notes: Morrison form IgG-scFv
